B1: human recombinant EPPIN (residues P22-P133) (domain or fragment)
chain: not shown
notes: EPPIN, human, residues P22-P133, cloned into pET100/D-TOPO; also called tag-free EPPIN; source: E. coli Rosetta-Gami 2 (DE3), purified under denaturing conditions (Ni-NTA); 6X His-tag removed with enterokinase; not shown: His6, N-terminal, cleaved

Assay [1] addresses B1. The experiment in a line: cell-based or functional assay.
Assay [2] has as its target T1, biotinylated SEMG1^214-42 (human, UniProt P04279-1 26-281, biotin (biotinylated as in ref. 23; sites not stated)).
T1 construct: semenogelin I (SEMG1), human, residues G26-R281; The same construct as m2, biotinylated; also called bt-SEMG1; source: E. coli BL21 Star (DE3), purified under denaturing conditions (Ni-NTA), then biotinylated
T1 sequence (looked up): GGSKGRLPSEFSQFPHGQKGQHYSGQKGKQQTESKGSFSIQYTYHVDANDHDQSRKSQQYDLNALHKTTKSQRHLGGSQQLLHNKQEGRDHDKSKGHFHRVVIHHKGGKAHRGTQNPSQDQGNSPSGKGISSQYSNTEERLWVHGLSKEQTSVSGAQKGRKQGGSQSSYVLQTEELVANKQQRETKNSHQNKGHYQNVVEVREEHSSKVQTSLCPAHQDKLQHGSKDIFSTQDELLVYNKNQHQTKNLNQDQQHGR
The experiment in a line: AlphaScreen or HTRF; competition: EPPIN (10 nM) and bt-SEMG1^214-42 (1 nM) with increasing SEMG1 competitor (10 pM - 8 µM), 30 µl, 15 µg/ml beads; as in ref. 23. As to conditions: both partners purified.

Assay [3] has as its target B1. Described as above. Particulars: both partners purified.
Assay [4] deals with B1. The assay can be described thus: AlphaScreen or HTRF; direct binding, concentration-response: EPPIN (29 nM) on anti-EPPIN Q20E antibody (2 nM) and Protein A acceptor beads; His-tagged SEMG1 construct (0.04-7.5 µM) on Ni-NTA-chelate donor beads; 10 µg/ml beads, 30 µl; EC50 from the specific signal after 16 h. As to conditions: both partners purified. (Bead proximity is the source of the signal in Alpha formats.)

Turning to QRETKNSHQNKGHYQNVVEVREEHSSKVQTSLCPAHQDKLQ (domain or fragment, human, UniProt P04279-1 207-247, looked up) [recombinant SEMG1^32-8 (residues Q207-Q247)], the “inhibition of human sperm motility (normalized iRMI by CASA), concentration-response, EC50” value in assay [1] came to 1750 nM.

Take B1: the binding result in assay [2] is reported as “binds”.

B2: recombinant SEMG1^74-8 (residues R165-Q247) (domain or fragment, human, UniProt P04279-1 165-247, looked up)
chain: RLWVHGLSKEQTSVSGAQKGRKQGGSQSSYVLQTEELVANKQQRETKNSHQNKGHYQNVVEVREEHSSKVQTSLCPAHQDKLQ
notes: semenogelin I (SEMG1), human, residues R165-Q247, in pET100/D-TOPO; also called fragment 74-8; source: E. coli BL21 Star (DE3), purified under denaturing conditions (Ni-NTA); not shown: His6, N-terminal, kept
As usually defined, the IC50 is the concentration that inhibits the measured activity by half. Consider B2, for which, in assay [3], the half-maximal inhibitory concentration (IC50) was 385 nM.

B3: human recombinant SEMG1^214-42 (wild-type, residues G26-R281) (domain or fragment, UniProt P04279-1 26-281, looked up)
chain: GGSKGRLPSEFSQFPHGQKGQHYSGQKGKQQTESKGSFSIQYTYHVDANDHDQSRKSQQYDLNALHKTTKSQRHLGGSQQLLHNKQEGRDHDKSKGHFHRVVIHHKGGKAHRGTQNPSQDQGNSPSGKGISSQYSNTEERLWVHGLSKEQTSVSGAQKGRKQGGSQSSYVLQTEELVANKQQRETKNSHQNKGHYQNVVEVREEHSSKVQTSLCPAHQDKLQHGSKDIFSTQDELLVYNKNQHQTKNLNQDQQHGR
notes: semenogelin I (SEMG1), human, residues G26-R281, cloned into pET100/D-TOPO; also called his-SEMG1; semenogelin I fragment G26-R281; source: E. coli BL21 Star (DE3), purified under denaturing conditions (Ni-NTA); not shown: His6, N-terminal, kept
Usually EC50 stands for the concentration at which the effect is half-maximal. B3: the “inhibition of human sperm motility (normalized iRMI by CASA), concentration-response, EC50” value in assay [1] stood at 1690 nM. Besides, in assay [3], the IC50 was found to be 8.1 nM. In assay [4], the EC50 is 23.1 nM.

B4: C239S-SEMG1^214-42 (domain or fragment, human, UniProt P04279-1 26-281, looked up)
chain: GGSKGRLPSEFSQFPHGQKGQHYSGQKGKQQTESKGSFSIQYTYHVDANDHDQSRKSQQYDLNALHKTTKSQRHLGGSQQLLHNKQEGRDHDKSKGHFHRVVIHHKGGKAHRGTQNPSQDQGNSPSGKGISSQYSNTEERLWVHGLSKEQTSVSGAQKGRKQGGSQSSYVLQTEELVANKQQRETKNSHQNKGHYQNVVEVREEHSSKVQTSLSPAHQDKLQHGSKDIFSTQDELLVYNKNQHQTKNLNQDQQHGR
notes: semenogelin I (SEMG1), human, residues G26-R281 with C239S; Point mutant of m2; source: E. coli BL21 Star (DE3), purified under denaturing conditions (Ni-NTA); not shown: His6, N-terminal, kept
As to B4, the EC50 in assay [4] worked out at 564 nM.

B5: C239R-SEMG1^214-42 (domain or fragment, human, UniProt P04279-1 26-281, looked up)
chain: GGSKGRLPSEFSQFPHGQKGQHYSGQKGKQQTESKGSFSIQYTYHVDANDHDQSRKSQQYDLNALHKTTKSQRHLGGSQQLLHNKQEGRDHDKSKGHFHRVVIHHKGGKAHRGTQNPSQDQGNSPSGKGISSQYSNTEERLWVHGLSKEQTSVSGAQKGRKQGGSQSSYVLQTEELVANKQQRETKNSHQNKGHYQNVVEVREEHSSKVQTSLRPAHQDKLQHGSKDIFSTQDELLVYNKNQHQTKNLNQDQQHGR
notes: semenogelin I (SEMG1), human, residues G26-R281 with C239R (Arg239 is the residue of Macaca mulatta and Papio anubis); Point mutant of m2; source: E. coli BL21 Star (DE3), purified under denaturing conditions (Ni-NTA); not shown: His6, N-terminal, kept
On to B5, for which the “inhibition of human sperm motility (normalized iRMI by CASA), concentration-response, EC50” value in assay [1] came to 2210 nM. In addition, the concentration for a half-maximal effect (EC50) in assay [4] came out at 461 nM.

B6: C239H-SEMG1^214-42 (domain or fragment, human, UniProt P04279-1 26-281, looked up)
chain: GGSKGRLPSEFSQFPHGQKGQHYSGQKGKQQTESKGSFSIQYTYHVDANDHDQSRKSQQYDLNALHKTTKSQRHLGGSQQLLHNKQEGRDHDKSKGHFHRVVIHHKGGKAHRGTQNPSQDQGNSPSGKGISSQYSNTEERLWVHGLSKEQTSVSGAQKGRKQGGSQSSYVLQTEELVANKQQRETKNSHQNKGHYQNVVEVREEHSSKVQTSLHPAHQDKLQHGSKDIFSTQDELLVYNKNQHQTKNLNQDQQHGR
notes: semenogelin I (SEMG1), human, residues G26-R281 with C239H (His239 is the Gorilla residue); Point mutant of m2; source: E. coli BL21 Star (DE3), purified under denaturing conditions (Ni-NTA); not shown: His6, N-terminal, kept
For B6, in assay [1], the “inhibition of human sperm motility (normalized iRMI by CASA), concentration-response, EC50” value was 1080 nM. Further, the EC50 in assay [4] worked out at 167 nM.

B7: C239G-SEMG1^214-42 (domain or fragment, human, UniProt P04279-1 26-281, looked up)
chain: GGSKGRLPSEFSQFPHGQKGQHYSGQKGKQQTESKGSFSIQYTYHVDANDHDQSRKSQQYDLNALHKTTKSQRHLGGSQQLLHNKQEGRDHDKSKGHFHRVVIHHKGGKAHRGTQNPSQDQGNSPSGKGISSQYSNTEERLWVHGLSKEQTSVSGAQKGRKQGGSQSSYVLQTEELVANKQQRETKNSHQNKGHYQNVVEVREEHSSKVQTSLGPAHQDKLQHGSKDIFSTQDELLVYNKNQHQTKNLNQDQQHGR
notes: semenogelin I (SEMG1), human, residues G26-R281 with C239G; Point mutant of m2; source: E. coli BL21 Star (DE3), purified under denaturing conditions (Ni-NTA); not shown: His6, N-terminal, kept
With B7, the EC50 in assay [4] is 83.3 nM.

B8: C239D-SEMG1^214-42 (domain or fragment, human, UniProt P04279-1 26-281, looked up)
chain: GGSKGRLPSEFSQFPHGQKGQHYSGQKGKQQTESKGSFSIQYTYHVDANDHDQSRKSQQYDLNALHKTTKSQRHLGGSQQLLHNKQEGRDHDKSKGHFHRVVIHHKGGKAHRGTQNPSQDQGNSPSGKGISSQYSNTEERLWVHGLSKEQTSVSGAQKGRKQGGSQSSYVLQTEELVANKQQRETKNSHQNKGHYQNVVEVREEHSSKVQTSLDPAHQDKLQHGSKDIFSTQDELLVYNKNQHQTKNLNQDQQHGR
notes: semenogelin I (SEMG1), human, residues G26-R281 with C239D; Point mutant of m2; source: E. coli BL21 Star (DE3), purified under denaturing conditions (Ni-NTA); not shown: His6, N-terminal, kept
As to B8, in assay [4], the EC50 came to 96.1 nM.

B9: recombinant SEMG1^74-42 (residues R165-R281) (domain or fragment, human, UniProt P04279-1 165-281, looked up)
chain: RLWVHGLSKEQTSVSGAQKGRKQGGSQSSYVLQTEELVANKQQRETKNSHQNKGHYQNVVEVREEHSSKVQTSLCPAHQDKLQHGSKDIFSTQDELLVYNKNQHQTKNLNQDQQHGR
notes: semenogelin I (SEMG1), human, residues R165-R281, in pET100/D-TOPO; source: E. coli BL21 Star (DE3), purified under denaturing conditions (Ni-NTA); not shown: His6, N-terminal, kept
Regarding B9, the “inhibition of human sperm motility (normalized iRMI by CASA), concentration-response, EC50” value in assay [1] stood at 3560 nM. The IC50 in assay [3] is 124 nM.

These data come from PMC3846889, “Interacting Proteins on Human Spermatozoa: Adaptive Evolution of the Binding of Semenogelin I to EPPIN” (PLoS ONE, 2013).
